Experimental findings from the DeepSol protein solubility set are described below.

This data set in a line: soluble on expression in E. coli; label from the status in PepcDB or PDB records.
Turning to “DIQMTQSPASLSASVGETVTITCRASGNIHNYLAWYQQKQGKSPQLLVYYTTTLADGVPSRFSGSGSGTQYSLKINSLQPEDFGSYYCQHFWSTPRTFGGGTKLEIKRADAAPTVSIFPPSSEQLTSGGASVVCFLNNFYPKDINVKWKIDGSERQNGVLNSWTDQDSKDSTYSMSSTLTLTKDEYERHNSYTCEATHKTSTSPIVKSFNRNEC”, the “soluble on expression in E. coli” value was “soluble”.

As for “MGHHHHHHSHMASATQSVSRLQSIVAGLKNAPSDQLINIFESCVRNPVENIMKILKGIGETFCQHYTQSTDEQPGSHIDFAVNRLKLAEILYYKILETVMVQETRRLHGMDMSVLLEQDIFHRSLMACCLEIVLFAYSSPRTFPWIIEVLNLQPFYFYKVIEVVIRSEEGLSRDMVKHLNSIEEQILESLAWSHDS”, the “soluble on expression in E. coli” value is “not soluble”. As for “GMTLPPYHTPLPAETLRALSIPAPWTFGLADRVRFGELDAIGHVNHTAYLRWYESFRLPFLKARHVTDYGPTSPRLVLKQVHCTYLAEMGMGEDYVITGRVSNFRTTSFTMEFACWRLGDAVECTSEGSAVVVLLNRDGSGRYPIPEAGRASFVTEDGVLAAG”, the entry is “soluble”; as for “MANKKNKVKFNICNVHYAPITVADEGKVSFGTPVAMPGAVSISMDPTGEPESFYADGIEYYVINNNQGYDGDLELAMIPETFRTDILKEEADSNNVLVENANSETGSFALLFEFDGDIRKIRHVLYNCSASRPTIESKTNEEDKEVQTETLTIKARPMADGYVKAKTGDSTTDTVYNNWYKSVYLPNSLEHHHHHH”, “soluble”; as for “MGSDKIHHHHHHMECTSYLVDTFDQLPPINEESLADIDNDLFSGLYYGGVDTPTTRQLSQRVADLEKGKFAVLTPSGQSAFNLLLTTFVKPGDHVLAGDTIVYSTRWLLNHFENIGVKIEYFTPSEAATLKNKLTLKTKLIIFENPGAFTYEVMDISAIVESRHDHPALIVADNTWAASLFHHPLSLGADISLISMSKYHGAVEGISLGALITKRKDLYVNLKTTSALTGNHVSSHACSAAIRSISTLGARLSFQMSTTRKVLRSLKPLPLLKQAIHPILQNTELHLQNSMIYGFNSLFTAEFSCSRNELISRLNRLNLIKIGYGWGGTTSLVNLIDTHDMPSAKRLGINSECARIYLGLEDPDELTRDLTNAFTQ”, “not soluble”. As for “MSDDEDEGRLQIDESPSDSEDKPSISAPPPLPPPLQETPEFQTTYDAHDQAETSGKEDGELDEDDENDDIEPMEIDEEIQLEIDEKPEDLVKDEQISEPTDKMREEFLKVEKTDENAVVESTSSFSPKLIDEQDLKVEEMSDEKHAQSPVSSDMTTSKSPTPSKKENGLMKPPQSTEKAQRKRKESTDIFSSEKRKLSLETVASSSSSSGSSNLSTTPQRSKRSSSHMATIAISACFTDEDIVSVPMMPIQKTPDTAPHSKRAKRDIGTNVITTRSTDTSGLLCNEAIMDTPPGSQMTLEVTVMYRTKNSLAFRVKGCDLIGFIGDGLPPMASSLTNNIASSMGNNNNKKKTASSSGNEEGKDGRSSSASSNGRGARGGSVLKDGKGDKQKGKRKKEETNDDDLEDENQNNEQYGSKKCELVEVDVAQLHDCHYDGCEKRFQKTTDLEYHISKNHKRRVMMYESICTQTSISSLETQNNSTQIDDDLPPMPQMPILKKEVPIKTPIGNVYEDLSDDDSETKPTDLVLKTPSSSASSAVATLMGIAQVSSSTTSATTSVVPPVGAQRSTPATPVSAKIGINPSMVANALAEKNKQQQQQQQKLNQLQPPHNPSLSTAPSSSSAQPPTMIQAHPMAGVFIPPPFHPAMMNPQMAAMMDQQRIAVAMSQQQQMSRTPSRQTISVSDSHKIHELAKSRENQQRQQSATPKTPSESVSTTGVVTPQRQFLPPQMMQPGTPQSILLQQQQQQQQQQQQAAAQHQIIQQMQMQMQRGMAPQMANQELLMMMMGMPHMVQGVPGFPGVPQLPPK”, the entry is “soluble”; as for “NVLPSELPAGVDWRSRGCVTPVKDQRDCGSCWAFSTTGALEGAHCAKTGKLVSLSEQELMDCSRAEGNQSCSGGEMNDAFQYVLDSGGICSEDAYPYLARDEECRAQSCEKVVKILGFKDVPRRSEAAMKAALAKSPVSIAIEADQMPFQFYHEGVFDASCGTDLDHGVLLVGYGTDKESKKDFWIMKNSWGTGWGRDGYMYMAMHKGEEGQCGLLLDASFPVM”, “soluble”.
